Measurements published in patent US20200199231A1.

Target: human CD20 (human) (UniProt P11836)
Assay: flow cytometry on Daudi cells (CD20-positive, CD3-negative); PE-conjugated goat anti-human IgG F(ab')2; geomean (PE)

Chain of human CD20 (human) (P11836 whole entry): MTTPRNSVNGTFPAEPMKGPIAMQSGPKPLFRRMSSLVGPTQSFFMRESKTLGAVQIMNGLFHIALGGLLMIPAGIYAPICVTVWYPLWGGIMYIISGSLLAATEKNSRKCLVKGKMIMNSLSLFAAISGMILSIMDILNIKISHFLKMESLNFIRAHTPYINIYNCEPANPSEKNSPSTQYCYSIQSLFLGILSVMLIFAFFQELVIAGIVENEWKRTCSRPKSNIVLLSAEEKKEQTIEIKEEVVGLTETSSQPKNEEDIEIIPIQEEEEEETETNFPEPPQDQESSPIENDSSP

Substance	EC50 (read off the curve) [µg/mL]
IgG1-GA101 (antibody)	0.6
IgG1-RTX (antibody)	0.7
